In US20240366756A1, “COMBINATIONS AND USES THEREOF” (Incyte Corporation, priority 2011, published 2024):
Marks after values point to notes of the source that are not given here.

B1: RefmAb33: antibody specific for RSV, used as isotype control, shares the same Fc region as MOR00208 (SEQ ID NO: 8, 9) (antibody)
heavy: QVTLRESGPALVKPTQTLTLTCTFSGFSLSTAGMSVGWIRQPPGKALEWLADIWWDDKKHYNPSLKDRLTISKDTSKNQVVLKVTNMDPADTATYYCARDMIFNFYFDVWGQGTTVTVSSASTKGPSVFPLAPSSKSTSGGTAALGCLVKDYFPEPVTVSWNSGALTSGVHTFPAVLQSSGLYSLSSVVTVPSSSLGTQTYICNVNHKPSNTKVDKKVEPKSCDKTHTCPPCPAPELLGGPDVFLFPPKPKDTLMISRTPEVTCVVVDVSHEDPEVQFNWYVDGVEVHNAKTKPREEQFNSTFRVVSVLTVVHQDWLNGKEYKCKVSNKALPAPEEKTISKTKGQPREPQVYTLPPSREEMTKNQVSLTCLVKGFYPSDIAVEWESNGQPENNYKTTPPMLDSDGSFFLYSKLTVDKSRWQQGNVFSCSVMHEALHNHYTQKSLSLSPGK
light: DIQMTQSPSTLSASVGDRVTITCSASSRVGYMHWYQQKPGKAPKLLIYDTSKLASGVPSRFSGSGSGTEFTLTISSLQPDDFATYYCFQGSGYPFTFGGGTKVEIKRTVAAPSVFIFPPSDEQLKSGTASVVCLLNNFYPREAKVQWKVDNALQSGNSQESVTEQDSKDSTYSLSSTLTLSKADYEKHKVYACEVTHQGLSSPVTKSFNRGEC
modifications: Heavy chain RefMab33; Light chain RefMab33

System: RAMOS human Burkitt's lymphoma cells
Experiment: Human Non-Hodgkin RAMOS tumor in SCID mice, survival model
Format: in vivo
Conditions: for Median Survival (Days Post-Inoculation): 3 mg/kg i.v., treatment related deaths excluded; for Survival, pairwise comparison (Holm-Sidak) vs. Group 2: Group 2 = Bendamustine (13 mg/kg); for Survival, pairwise comparison (Holm-Sidak) vs. Group 3: Group 3 = Bendamustine (16 mg/kg); for Survival, pairwise comparison (Holm-Sidak) vs. Group 5: Group 5 = MOR00208/Bendamustine (3/13 mg/kg); for Survival, pairwise comparison (Holm-Sidak) vs. Group 6: Group 6 = MOR00208/Bendamustine (3/16 mg/kg); for Survival, pairwise comparison (Holm-Sidak) vs. Group 1: Group 1 = MOR00208 (3 mg/kg)
Protocol: Cyclophosphamide (Baxter, Lot. No. 1A548C); Vehicle Control: 0.9% sodium chloride, 25 mg/ml mannitol, pH 6.5-6.8 (adjusted with 0.01 M NaOH); SCID Mice (University of Adelaide, Waite Campus, Urrbaraie, SA, Australia, Strain C.B.-17-Igh-1^b-Prkdc^scid); RAMOS human Burkitt's lymphoma cells (ATCC number CRL-1596); Ref_mAb_33_IgG_Xen (10 mg/mL in PBS, referred to as Ref_mAb_33); Bendamustine (Mundipharma, Lot No. 83889).
SCID mice were pre-treated with Cyclophosphamide (75 mg/kg, i.p., twice daily) for two days prior to RAMOS cell inoculation (Day −2 and −1). On the day of inoculation (Day 0), the mice were separated into seven groups of ten mice each, and inoculated with 1×10^6 RAMOS cells each intravenously into the tail vein. The planned dosing regimen for each group is shown in Table 5 and commenced on Day 3. The study duration was 60 days.
From the raw data shown in Table 6, both the median survival in days and median increase in lifespan were calculated. All treatment related deaths were excluded in the calculations.
Median % Increased Lifespan (ILS) is calculated as follows: […]
The classification of the MOR000208/Bendamustine combination therapy (combo) effect was evaluated by comparing the ILS of the combination with the added ILS of the respective monotherapies:
Synergy/Potentiation*: ILSCombo>ILSMOR00208 3 mg/kg+ILSBendamustine. Synergistic effects are classified as potentiation if at least one of the monotherapies has no effect. Additivity: ILSCombo=ILSMOR00208 3 mg/kg+ILSBendamustine. Antagonism: ILSCombo<ILSMOR00208 3 mg/kg+ILSBendamustine.
In addition to an analysis of the data for purposes of identifying synergy, the following statistical analysis was also completed. Statistical analyses were carried out using the median values. Any animal that died unexpectedly or was culled prior to Day 17 of the study in the Test Article treatment groups was excluded from survival analysis calculation. The death/culling of these animals was attributed to compound toxicity rather than disease progression as they occurred well in advance of the first deaths in the Vehicle Control animals. A survival curve was created using the product limit of Kaplan and Meier, and survival curves compared using the log-rank (Mantel-Cox) test. Where significant differences were found, All Pairwise Multiple Comparison (Holm-Sidak Test) was performed. Comparison was done between all groups. In addition the comparison of the following groups were summarised in separate figures for each test article: Vehicle Control/Ref_mAb (group 10) against Bendamustine groups (Groups 2, 3 and 4) and Vehicle Control/Ref_mAb (group 10) against Combination groups (Groups 5 and 6) or respective MOR00208 monotherapy group (group 1). A p value of less than 0.05 was considered significant.

[1] = Table 8, listed as Bendamustine = 13 mg/kg
[2] = Table 9, listed as combination = 3/13 mg/kg
[3] = Table 10, listed as combination = 3/16 mg/kg
[4] = untitled repeat of Table 8, listed as Bendamustine = 13 mg/kg

Row | Molecule | Median Survival (Days Post-Inoculation) | Median % Increase in Lifespan (ILS) (3 mg/kg, vs. vehicle control/Ref_mAb_33) [%] | Survival, pairwise comparison (Holm-Sidak) vs. Group 2 (Table 8) | Survival, pairwise comparison (Holm-Sidak) vs. Group 3 [1] | Survival, pairwise comparison (Holm-Sidak) vs. Group 2 [2] | Survival, pairwise comparison (Holm-Sidak) vs. Group 5 (Table 9) | Survival, pairwise comparison (Holm-Sidak) vs. Group 3 [3] | Survival, pairwise comparison (Holm-Sidak) vs. Group 6 (Table 10) | Survival, pairwise comparison (Holm-Sidak) vs. Group 2 (untitled repeat of Table 8) | Survival, pairwise comparison (Holm-Sidak) vs. Group 3 [4] | Survival, pairwise comparison (Holm-Sidak) vs. Group 1 (Table 8) | Survival, pairwise comparison (Holm-Sidak) vs. Group 1 (Table 9) | Survival, pairwise comparison (Holm-Sidak) vs. Group 1 (Table 10) | Survival, pairwise comparison (Holm-Sidak) vs. Group 1 (untitled repeat of Table 8)
1 | MOR00208: anti-CD19 antibody; variable domains shown in FIG. 3, heavy and light chain Fc regions in FIG. 4 | 32^a Days Post-Inoculation | 25.5 | ***Yes (***Yes: There is a statistically significant difference (p < 0.001).) | ***Yes (***Yes: There is a statistically significant difference (p < 0.001).) | ***Yes (***Yes: There is a statistically significant difference (p < 0.001).) | *Yes (*Yes: There is a statistically significant difference (p < 0.05).) | ***Yes (***Yes: There is a statistically significant difference (p < 0.001).) | ***Yes (***Yes: There is a statistically significant difference (p < 0.001).) | ***Yes (***Yes: There is a statistically significant difference (p < 0.001).) | ***Yes (***Yes: There is a statistically significant difference (p < 0.001).) |  |  |  | 
2 | B1 | 25.5 Days Post-Inoculation |  | *Yes (*Yes: There is a statistically significant difference (p < 0.05).) | No (No: There is no statistically significant difference (p ≥ 0.05).) | *Yes (*Yes: There is a statistically significant difference (p < 0.05).) | ***Yes (***Yes: There is a statistically significant difference (p < 0.001).) | No (No: There is no statistically significant difference (p ≥ 0.05).) | ***Yes (***Yes: There is a statistically significant difference (p < 0.001).) | *Yes (*Yes: There is a statistically significant difference (p < 0.05).) | No (No: There is no statistically significant difference (p ≥ 0.05).) | ***Yes (***Yes: There is a statistically significant difference (p < 0.001).) | ***Yes (***Yes: There is a statistically significant difference (p < 0.001).) | ***Yes (***Yes: There is a statistically significant difference (p < 0.001).) | ***Yes (***Yes: There is a statistically significant difference (p < 0.001).)
